Results on two molecules are retold here after US9549967B2, “Regulation of sodium channels by PLUNC proteins” (The University of North Carolina at Chapel Hill, priority 2009, dated 2017).

The target of the assay is T1, ENaC (Homo sapiens, UniProt P37088+P51168+P51170).
T1 construct: endogenous in cells; host or cells: primary human bronchial epithelial cultures
T1 sequence (P37088 1-669): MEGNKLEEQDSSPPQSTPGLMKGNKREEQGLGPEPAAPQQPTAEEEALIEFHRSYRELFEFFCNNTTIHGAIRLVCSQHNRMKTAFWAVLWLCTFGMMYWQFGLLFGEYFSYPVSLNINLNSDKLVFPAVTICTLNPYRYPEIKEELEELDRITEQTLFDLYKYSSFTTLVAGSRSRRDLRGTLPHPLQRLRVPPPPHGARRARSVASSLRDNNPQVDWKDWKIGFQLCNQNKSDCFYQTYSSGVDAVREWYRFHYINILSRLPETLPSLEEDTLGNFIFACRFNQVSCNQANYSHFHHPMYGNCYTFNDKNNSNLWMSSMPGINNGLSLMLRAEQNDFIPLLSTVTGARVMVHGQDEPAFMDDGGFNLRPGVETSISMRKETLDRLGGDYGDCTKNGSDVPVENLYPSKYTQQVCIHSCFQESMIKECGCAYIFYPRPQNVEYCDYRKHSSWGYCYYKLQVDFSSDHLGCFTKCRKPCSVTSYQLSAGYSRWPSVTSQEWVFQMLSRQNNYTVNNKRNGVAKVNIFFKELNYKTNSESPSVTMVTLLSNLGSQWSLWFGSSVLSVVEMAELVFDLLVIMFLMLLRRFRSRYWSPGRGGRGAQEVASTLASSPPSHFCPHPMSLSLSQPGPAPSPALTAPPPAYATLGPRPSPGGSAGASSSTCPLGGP
T1 sequence (P51168 1-640): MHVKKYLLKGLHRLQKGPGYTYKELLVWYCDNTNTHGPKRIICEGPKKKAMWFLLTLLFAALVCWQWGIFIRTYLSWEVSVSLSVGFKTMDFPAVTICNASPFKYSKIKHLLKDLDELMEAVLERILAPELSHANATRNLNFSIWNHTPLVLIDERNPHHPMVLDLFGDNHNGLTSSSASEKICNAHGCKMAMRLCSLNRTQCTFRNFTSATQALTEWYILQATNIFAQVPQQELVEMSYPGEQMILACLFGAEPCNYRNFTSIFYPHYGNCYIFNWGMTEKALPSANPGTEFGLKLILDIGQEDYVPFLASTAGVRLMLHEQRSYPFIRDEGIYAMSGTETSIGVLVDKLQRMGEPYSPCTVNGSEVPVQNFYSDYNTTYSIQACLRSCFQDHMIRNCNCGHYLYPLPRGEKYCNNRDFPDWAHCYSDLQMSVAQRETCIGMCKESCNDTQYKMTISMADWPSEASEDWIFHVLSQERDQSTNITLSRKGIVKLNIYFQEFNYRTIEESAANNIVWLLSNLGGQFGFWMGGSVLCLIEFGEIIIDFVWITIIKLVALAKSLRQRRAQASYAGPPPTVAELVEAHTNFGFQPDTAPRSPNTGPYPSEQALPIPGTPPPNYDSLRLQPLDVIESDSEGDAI
T1 sequence (P51170 1-649): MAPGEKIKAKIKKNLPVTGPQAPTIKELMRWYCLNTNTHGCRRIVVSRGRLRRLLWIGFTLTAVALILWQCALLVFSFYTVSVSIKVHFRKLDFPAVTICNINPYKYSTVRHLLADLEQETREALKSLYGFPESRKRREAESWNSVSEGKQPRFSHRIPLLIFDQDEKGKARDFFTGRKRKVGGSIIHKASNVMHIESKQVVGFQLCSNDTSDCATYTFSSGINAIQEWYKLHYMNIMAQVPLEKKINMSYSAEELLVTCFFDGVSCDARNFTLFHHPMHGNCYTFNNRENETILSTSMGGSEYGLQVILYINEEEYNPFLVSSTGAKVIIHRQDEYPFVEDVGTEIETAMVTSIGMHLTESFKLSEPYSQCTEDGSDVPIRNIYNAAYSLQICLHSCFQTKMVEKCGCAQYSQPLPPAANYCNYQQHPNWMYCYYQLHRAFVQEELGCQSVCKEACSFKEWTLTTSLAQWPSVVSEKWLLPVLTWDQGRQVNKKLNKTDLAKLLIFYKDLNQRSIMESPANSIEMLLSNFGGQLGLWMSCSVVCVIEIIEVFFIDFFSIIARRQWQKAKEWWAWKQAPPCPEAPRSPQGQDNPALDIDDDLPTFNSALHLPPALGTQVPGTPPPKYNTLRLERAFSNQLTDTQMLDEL
Nature of the assay: Transepithelial voltage under thin film conditions in human bronchial epithelial cultures (microelectrode). Type of assay: cell-based. From the text: Tissue procurement and cell culture: Cells were harvested by enzymatic digestion from human bronchial tissue as previously described under a protocol approved by the UNC School of Medicine IRB (Tarran et al., J. Gen. Physiol. 127:591 (2006)). Human excess donor lungs and excised recipient lungs were obtained at the time of lung transplantation from portions of main stem or […] bronchi and cells were harvested by enzymatic digestion. All preparations were maintained at an air-liquid interface in a modified bronchial epithelial medium and used 2-5 weeks after seeding on 12 mm T-Clear inserts (Corning Costar) coated with human placental type VI collagen (Sigma). Phosphate buffered saline (PBS) was used for washing human bronchial epithelial culture mucosal surfaces.
Microelectrode studies. A single-barreled potential difference-sensing electrode was placed in the airway surface liquid by micromanipulator and used in conjunction with a macroelectrode in the serosal solution to measure transepithelial voltage using a voltmeter (World Precision Instruments). […] Transepithelial resistance was routinely measured using the EVOM system (WPI) as previously described (Tarran et al., J. Gen. Physiol. 127:591 (2006)).

As for trypsin [reference compound], the “transepithelial voltage after mucosal trypsin” value is, setting by setting: (SPLUNC1-exposed group, trypsin for 30 min after 1 h rSPLUNC1 exposure) “significantly raised the transepithelial voltage”; (control cultures, trypsin for 30 min) “without effect”.

B1: SPLUNC1: human SPLUNC1, 256 amino acid secreted PLUNC protein (SEQ ID NO:1); rSPLUNC1 = V5/6His-tagged protein purified from HEK293 media (protein, listed as Homo sapiens)
chain: MFQTGGLIVFYGLLAQTMAQFGGLPVPLDQTLPLNVNPALPLSPTGLAGSLTNALSNGLLSGGLLGILENLPLLDILKPGGGTSGGLLGGLLGKVTSVIPGLNNIIDIKVTDPQLLELGLVQSPDGHRLYVTIPLGIKLQVNTPLVGASLLRLAVKLDITAEILAVRDKQERIHLVLGDCTHSPGSLQISLLDGLGPLPIQGLLDSLTGILNKVLPELVQGNVCPLVNEVLRGLDITLVHDIVNMLIHGLQFVIKV
modifications: V5/6His tag
notes: rSPLUNC1 = V5/6His-tagged protein purified from HEK293 media
As to B1, the “regulation of the transepithelial voltage” value (SPLUNC1 knockdown cultures, 50 ng/ml rSPLUNC1 added to airway surface liquid) is reported as “restored”. The transepithelial voltage result is on record as “without further effect” (cultures not pre-washed, airway surface liquid accumulated for 24 h) and “significantly reduced the transepithelial voltage” (washed cultures, 20 μl Ringer containing 50 ng/ml rSPLUNC1). The same molecule came in with an onset of inhibition (human bronchial epithelial cultures, FIG. 2C, 2D) of 30 to 60 min. Moreover, the “rate of inhibition of the transepithelial voltage” value (rSPLUNC1 vs aprotinin addition, effects not additive) is “identical rates”. For the setting “same amiloride-treated cultures, n=12”, the “transepithelial voltage, addition to amiloride-treated cultures” value is recorded as “without further effect”.
